Here are results for three substances from article PMC11142708.

The target in this assay is microtubule. The assay is described as follows: optical trap binding-time assay; kinesin held by its C-terminal His tag on a polystyrene bead (0.56 um, streptavidin with biotinylated penta-His antibody), at most one motor per bead, trapped 0, 20, 40 or 60 nm from a surface-attached microtubule; binding time = time from unbinding to the next detectable bead displacement (>15 nm); room temperature; motility buffer (80 mM Pipes pH 6.9, 50 mM CH3COOK, 4 mM MgSO4, 1 mM DTT, 1 mM EGTA, 10 uM taxol, 1 mg/mL casein) with 2 mM ATP and an oxygen-scavenging system; the rates of Table 1 are fits of Brownian dynamics models to the mean binding times of all three motor lengths together.
For the substance “DK-560-His (Kinesin-1, aa 1-560; His tag at c-term) (from UniProt P17210 1-560) (domain or fragment)”, the binding time (plateau at close distances) was 1 s; the koff^ADP,fast (rate of the weak-to-strong binding transition on the microtubule; diffusion with ADP state model) is 2.12 s⁻¹; the koff^MT (unbinding from the weakly bound state, at zero force; diffusion with ADP state model) is 0.2 s⁻¹; the kon^MT (microscopic first-order binding rate when the head is within 5 nm of the microtubule; diffusion with ADP state model) is 70.7 s⁻¹. The kon^MT (microscopic first-order binding rate; simple diffusion model) came to 80.6 s⁻¹.

Regarding “DK-406-His (Drosophila Kinesin aa 1-406; His tag at c-term) (from UniProt P17210 1-406) (domain or fragment)”, the binding time (plateau at close distances) was 1 s; the koff^ADP,fast (rate of the weak-to-strong binding transition on the microtubule; diffusion with ADP state model) is 2.12 s⁻¹; the koff^MT (unbinding from the weakly bound state, at zero force; diffusion with ADP state model) was determined as 0.2 s⁻¹; the kon^MT (microscopic first-order binding rate when the head is within 5 nm of the microtubule; diffusion with ADP state model) came out at 70.7 s⁻¹. Further, the kon^MT (microscopic first-order binding rate; simple diffusion model) came out at 80.6 s⁻¹.

With “DK-746-His (Drosophila Kinesin aa 1-746; His tag at c-term) (from UniProt P17210 1-746) (domain or fragment)”, the binding time (plateau at close distances) was 1 s; the koff^ADP,fast (rate of the weak-to-strong binding transition on the microtubule; diffusion with ADP state model) was 2.12 s⁻¹; the koff^MT (unbinding from the weakly bound state, at zero force; diffusion with ADP state model) turned out to be 0.2 s⁻¹; the kon^MT (microscopic first-order binding rate when the head is within 5 nm of the microtubule; diffusion with ADP state model) was 70.7 s⁻¹. Moreover, the kon^MT (microscopic first-order binding rate; simple diffusion model) came to 80.6 s⁻¹.
